Data published in paper PMC9481708.

Target: And-1 HMG domain (UniProt O75717)
Test: FLAG-SepB IP, GST-HMG blot
Details: reference: wild-type SepB; sites T826

UniProt O75717, sequence (O75717 330-984 T826A): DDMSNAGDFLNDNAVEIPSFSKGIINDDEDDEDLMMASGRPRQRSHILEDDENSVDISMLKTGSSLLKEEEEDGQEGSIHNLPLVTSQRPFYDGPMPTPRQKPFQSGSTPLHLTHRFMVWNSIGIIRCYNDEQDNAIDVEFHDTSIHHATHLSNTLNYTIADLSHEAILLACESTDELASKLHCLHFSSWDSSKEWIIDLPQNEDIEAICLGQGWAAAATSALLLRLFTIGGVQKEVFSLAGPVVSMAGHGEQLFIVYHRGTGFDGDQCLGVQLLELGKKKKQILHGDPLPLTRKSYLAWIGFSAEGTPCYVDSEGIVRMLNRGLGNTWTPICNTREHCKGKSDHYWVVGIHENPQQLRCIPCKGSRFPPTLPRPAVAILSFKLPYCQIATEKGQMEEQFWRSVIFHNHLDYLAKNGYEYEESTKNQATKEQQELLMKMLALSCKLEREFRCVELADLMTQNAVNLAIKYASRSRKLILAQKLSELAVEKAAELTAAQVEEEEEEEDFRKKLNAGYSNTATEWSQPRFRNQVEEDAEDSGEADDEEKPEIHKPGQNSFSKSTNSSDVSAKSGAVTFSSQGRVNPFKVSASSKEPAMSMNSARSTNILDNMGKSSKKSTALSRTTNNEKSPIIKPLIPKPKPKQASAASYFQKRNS

With “And-1 SepB domain, 330-984 (from UniProt O75717) SepB T826A” the “binding against the reference” value was “stronger”.
